# Entries after “also recorded” stand apart in the source; their conditions may differ.
# Columns and labels:
# 6-OHDA rats = assay: 6-OHDA rat model, apomorphine-induced rotational behaviour; format: in vivo; details: injection in left striatum; apomorphine 0.5 mg/kg s.c.; rotations counted over 10 minutes; versus controls
# Experimental: 6-Hydroxydopamine (or 6-OHDA) animal model of dyskinesia and oxidative stress: The 6-OHDA model was chosen for this study as this model is characterized by oxidative stress and degeneration of DA neurons, similar to the condition in human idiopathic PD patients and is a well-known preclinical animal model of PD.
# 6-OHDA animals, male Sprague-Dawley rats from Charles River (Raleigh, N.C., USA), were prepared by hemi-lateral lesioning of the A9 dopaminergic pathway by injecting 6-OHDA toxin in the substantia nigra par compacta (SNc) region of the rat brain. This unilateral nigrostriatal degeneration cause assymetry in motor behaviours due to imbalanced dopimanergic activity between striata. […] Baseline rotational behavior and locomoter testing were performed before surgical intervention.
# The protocol for lesioning is synonymous with our 6-OHDA stereotaxic injection protocol found in Modi et al., (1996). Rats were sent to the McMaster University animal facility and allowed to acclimatize to the colony room for 1 week following arrival. Each rat was handled by the same researcher daily for 7 days before the start of the experiment. Animals were then tested for baseline apomorphine-induced rotations (tested during light hours), and locomotor activity (tested during dark hours) under apomorphine challenge treatment. Animals were then split into groups and injected with CRP40, CRP40 fragments and peptides, and controls. Animals were housed and tested in compliance with the guidelines described in the Guide to the Care and Use of Experimental Animals (Canadian Council on Animal Care, 1984; 1993).
# 6-OHDA rats were injected in the left striatum with one of the various fragments via stereotaxic surgery. […] Coordinates for striatal injections of treatment are as follows: A/P +0.7 mm, M/L +3.0 mm, and D/V −5.0 mm. A 25 μl Hamilton syringe with a 22 gauge 2 inch blunt needle was used to inject treatments at a rate of 1 μl/min.
# Apomorphine injection causes full body rotational behaviour in the direction contralateral to the 6-OHDA lesion. The total number of rotations per fixed time period is used as a measure of improving or worsening symptomology. A holding chamber in which the animal is confined to a circular shaped floor is used to count rotations, as this is an optimal arrangement for these experiments compared to an open field box. 0.5 mg/ml Apomorphine (Sigma: A4393) was dissolved in 0.9% saline with 0.1% ascorbic acid. Animals were injected subcutaneously with apomorphine (0.5 mg/kg body weight). Animals were placed in a clear plastic cylindrical holding tank and allowed 5 minutes for habituation. Following habituation, 10 minutes was allotted and a cell counter was used to record the number of rotations.
# [1] = Competitive radioligand binding of [3H]-DA in the presence of cold DA; details: 1 nM radioligand, 10 μg protein, range of unlabeled DA
# Experimental: (§1) Methods. The ability of cold DA to displace bound tritiated dopamine ([3H]-DA) in CRP40, P2P4, or heat-shock protein 47 (a control heat-shock protein that plays a role in collagen synthesis) was assessed by competitively binding [3H]-DA in the presence of different concentrations of unlabeled DA or apomorphine (in 0.1% ascorbic acid) using the same methodology as in (Gabriele et al., 2009). […] At the end of incubation, the bound and free ligands were separated by vacuum filtration through Whatman GF/B filters. The filters were washed with 3×5 ml of Tris-EDTA buffer and the radioactive counts were determined on a Beckman scintillation counter. The Assay Buffer was prepared by adding the following components to 500 ml of double distilled water: 25 ml 1M Tris-HCl (pH 8; 50 mM), […] (1 mM), 100 mM PMSF in ethanol (0.1 mM), 0.508 g MgCl2·6H2O (5 mM), 0.0077 g DTT (0.1 mM), 0.050 g Bacitracin (100 μg/ml), and 0.0025 g
# (§2) Soybean Trypsin (5 μg/ml). The final pH was adjusted to 7.4. The filtration Buffer was prepared by adding the following components to 2 L of double distilled water: 100 ml 1M Tris-HCl (pH 8; 50 mM), and 4 ml 500 mM EDTA (1 mM). The final pH was adjusted to 7.4. Statistical analysis of the data was performed utilizing Graph Pad Prism 6.0 software. […]
# [2] = Competitive radioligand binding of [3H]-DA in the presence of cold apomorphine; details: 1 nM radioligand, 10 μg protein, range of unlabeled apomorphine
# Experimental: as §1, §2
# SH-SY5Y cells [3] = assay: OxiSelect Intracellular ROS Assay, H2O2-induced oxidative stress in transfected cells; format: cell-based; details: overexpression in transfected SH-SY5Y cells; 500 μM H2O2; normal cells had increased ROS
# Experimental: The ability of CRP40- and mortalin-transfected SH-SY5Y cells to protect against the harmful effects of mitochondrial ROS in comparison to normal non-transfected SH-SY5Y cells was measured using the OxiSelect™ Intracellular ROS Assay Kit (Green Fluorescence). H2O2 treatment was used to induce oxidative stress in the assay. Increased fluorescence in this assay corresponded to greater ROS levels.
# SH-SY5Y cells [4] = assay: ATP-Glo Bioluminometric Cell Viability Assay with MG-132 proteasomal inhibitor; format: cell-based; details: for preservation of ATP levels and cell viability under proteasomal stress: overexpression in SH-SY5Y cells, MG-132; for cell viability in basal condition versus normal non-transfected SH-SY5Y cells: no MG-132, p<0.0001
# Text: The ability of CRP40- and mortalin-transfected SH-SY5Y cells to maintain mitochondrial homeostasis, specifically energy production and ATP levels, was examined using the ATP-Glo™ Bioluminometric Cell Viability Assay Kit. MG-132 was used to inhibit proteasomal function and cause increased oxidative stress, which would compromise mitochondrial function, as well as the processes of energy production. The quantitation of ATP levels was thus used as a measure of cell viability.
# FIG. 7 summarizes the results of the adenosine triphosphate assays. […] Mortalin was used as a positive control in this assay. […] The data are representative of mean±S.D. of experiments for each condition performed twice, in triplicate.
Molecule,rotational behaviour in the 6-OHDA rat model (6-OHDA rats),specific binding of [3H]-DA in competition with cold DA (dopamine binding) [1],specific binding of [3H]-DA in competition with cold apomorphine (apomorphine binding) [2],ROS levels under oxidative stress versus normal non-transfected SH-SY5Y cells (SH-SY5Y cells [3]),preservation of ATP levels and cell viability under proteasomal stress (SH-SY5Y cells [4]),cell viability in basal condition versus normal non-transfected SH-SY5Y cells (SH-SY5Y cells [4])
"P2P4: SEQ ID NO:5, 60-amino acid fragment spanning amino acids 95-154 of full-length CRP40 (6.6 kDa)",reduction of rotational behavior; also recorded: alleviate rotational symptoms; also recorded: as effective as full-length CRP40,does not bind dopamine at all,does not bind; also recorded: do not bind apomorphine,–,–,–
mortalin: ubiquitously expressed molecular chaperone of 649 amino acids encoded by HSPA9B; positive control in the ATP assay [reference compound],–,–,–,partially preserves mitochondrial homeostasis and ROS levels,helps to maintain intracellular ATP levels and energy production; also recorded: partially preserve ATP levels and cell viability,significantly lower
"P1P5: SEQ ID NO:4, P1P5 fragment of human CRP40 (27 kDa) (protein, listed as Homo sapiens) MDSSGPKHLNMKLTRAQFEGIVTDLIRRTIAPCQKAMQEVSKSDIGEVILVGGMTRMPKVQQTVQGLFGRAPSKAVNPDEAVAIGAAIQGGVLAGDVTDVLLLDVTPLSLGIETLGGVFTKLINRNTTIPTKKSQVFSTAADGQTQVEIKVCQGEREMAGDNKLLGQFTLIGIPPAPRGVPQIEVTFDIDANGIVHVSAKDKGTGRERQIVIQSSGGLSKDDIEENMVKNAEKYAEEDRRKKERV",reduction of rotational behavior; also recorded: effective,–,–,–,–,–
"CRP40: SEQ ID NO:1, full-length human catecholamine-regulated protein, 40 kDa molecular chaperone, splice variant of mortalin (protein, listed as Homo sapiens) MDSSGPKHLNMKLTRAQFEGIVTDLIRRTIAPCQKAMQDAEVSKSDIGEVILVGGMTRMPKVQQTVQDLFGRAPSKAVNPDEAVAIGAAIQGGVLAGDVTDVLLLDVTPLSLGIETLGGVFTKLINRNTTIPTKKSQVFSTAADGQTQVEIKVCQGEREMAGDNKLLGQFTLIGIPPAPRGVPQIEVTFDIDANGIVHVSAKDKGTGREQQIVIQSSGGLSKDDIENMVKNAEKYAEEDRRKKERVEAVNMAEGIIHDTETKMEEFKDQLPADECNKLKEEISKMRELLARKDSETGENIRQAASSLQQASLKLFEMAYKKMASEREGSGSSGTGEQKEDQKEEKQ",alleviate rotational symptoms; also recorded: could correct movement impairments,binds DA with high capacity and low affinity; also recorded: binds dopamine with high capacity and low affinity,binds apomorphine; also recorded: binds dopamine,partially preserves mitochondrial homeostasis and ROS levels,helps to maintain intracellular ATP levels and energy production; also recorded: partially preserve ATP levels and cell viability,significantly lower
"HSP47: heat shock protein 47, a 47 kDa collagen-specific chaperone used as negative control (protein, UniProt P50454 19-418, looked up) Serpin H1: AEVKKPAAAAAPGTAEKLSPKAATLAERSAGLAFSLYQAMAKDQAVENILVSPVVVASSLGLVSLGGKATTASQAKAVLSAEQLRDEEVHAGLGELLRSLSNSTARNVTWKLGSRLYGPSSVSFADDFVRSSKQHYNCEHSKINFRDKRSALQSINEWAAQTTDGKLPEVTKDVERTDGALLVNAMFFKPHWDEKFHHKMVDNRGFMVTRSYTVGVMMMHRTGLYNYYDDEKEKLQIVEMPLAHKLSSLIILMPHHVEPLERLEKLLTKEQLKIWMGKMQKKAVAISLPKGVVEVTHDLQKHLAGLGLTEAIDKNKADLSRMSGKKDLYLASVFHATAFELDTDGNPFDQDIYGREELRSPKLFYADHPFIFLVRDTQSGSLLFIGRLVRPKGDKMRDEL",does not elicit a correction of rotational behaviour,–,–,–,–,–
"P1P3: SEQ ID NO:2, P1P3 fragment of human CRP40 (11.1 kDa) (protein, listed as Homo sapiens) MDSSGPKHLNMKLTRAQFEGIVTDLIRRTIAPCQKAMQDAEVSKSDIGEVILVGGMTRMPKVQQTVQDLFGRAPSKAVNPDEAVAIGAAIQGGVLA",not effective,–,–,–,–,–

# — patent US20160052980A1, “CRP40 FRAGMENTS FOR THE TREATMENT OF NEUROLOGICAL DISORDERS” (CRP40 INC., priority 2013, published 2016)
